These results are taken from paper PMC9478924.

The test has as its target EVA-4 (UniProt P0C8E9). The test is described as follows: SPR. In general terms: In SPR one partner is held on a chip, and binding of the other changes the refractive index at the surface.

By Kd is commonly meant the constant that tells how readily two partners part at equilibrium.

Chain of CCL13, Q99616 17-98 (ligand; biotin on the Avi-tag (Bir-A ligase); other documents disagree on this pair) (Q99616 17-98): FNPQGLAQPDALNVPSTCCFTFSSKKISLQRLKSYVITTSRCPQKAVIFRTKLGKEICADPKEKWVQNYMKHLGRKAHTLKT
Chain of EVA-4 (P0C8E9 24-127): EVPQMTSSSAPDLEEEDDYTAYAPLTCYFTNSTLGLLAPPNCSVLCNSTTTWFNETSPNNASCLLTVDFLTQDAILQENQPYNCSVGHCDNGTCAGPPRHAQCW

Substance “CCL13, Q99616 17-98 (ligand; biotin on the Avi-tag (Bir-A ligase); other documents disagree on this pair)” yielded a dissociation constant Kd of 253 nM.
